Laboratory results as given in patent publication US20160185837A1 (Medimmune Limited, priority 2013, published 2016).
Where two headings read alike, the source gives them in different places. Ends that are not written are not given here.

Columns and labels:
[1] = Extended pharmacokinetics, serum ELISA for protein (Fc) detection; type: in vivo, CD male rats; details: 1 mg/kg subcutaneously or intravenously, serum out to 168 hours
Protocol: More extended pharmacokinetic assays to determine protein stability and activity were performed as follows. CD male rats (n=3) were injected subcutaneously or intravenously with 1 mg/kg IP088 or GLP1a-Fc. Periodic serum samples were obtained out to 168 hours. The serum samples were subjected to ELISA for protein (Fc) detection by the following method. ELISA plates (Costar 3690) were coated with Mouse anti-human IgG (JCD-10) 1/500 in PBS (final concentration 1 μg/ml). […] was added to each well and the plates were incubated overnight at 4° C. Following washing with PBS-Tween (PBS-T), the plates were blocked with […] 1% BSA in PBS for 1 h at RT with gentle shaking. Following washing with PBS-T, standards, and dilutions of […] samples were added (50 μl/well), and the plate was incubated for 2 h at RT with gentle shaking. Following washing […] biotinylated mouse anti-human IgG (JCD-10) diluted 1/1000 in ELISA incubation buffer (final concentration 0.5 μg/ml) was added to each well and the plates were incubated for 1 h at RT with gentle shaking. Following washing […] of Streptavidin-HRP diluted 1/1000 in ELISA incubation buffer was added to each well, and the plates were incubated for 45 min at RT with gentle shaking. […]

cyno GLP-1r (cGLP-1r) = biological target: T1, cyno GLP-1r (cGLP-1r) (Macaca fascicularis, UniProt F8V479); assay: cAMP assay, cells expressing cyno GLP-1r, 4.2% cyno serum albumin; type: cell-based, cynomolgus monkey
T1 construct: expressed in transfected cells
T1 sequence (F8V479 24-463): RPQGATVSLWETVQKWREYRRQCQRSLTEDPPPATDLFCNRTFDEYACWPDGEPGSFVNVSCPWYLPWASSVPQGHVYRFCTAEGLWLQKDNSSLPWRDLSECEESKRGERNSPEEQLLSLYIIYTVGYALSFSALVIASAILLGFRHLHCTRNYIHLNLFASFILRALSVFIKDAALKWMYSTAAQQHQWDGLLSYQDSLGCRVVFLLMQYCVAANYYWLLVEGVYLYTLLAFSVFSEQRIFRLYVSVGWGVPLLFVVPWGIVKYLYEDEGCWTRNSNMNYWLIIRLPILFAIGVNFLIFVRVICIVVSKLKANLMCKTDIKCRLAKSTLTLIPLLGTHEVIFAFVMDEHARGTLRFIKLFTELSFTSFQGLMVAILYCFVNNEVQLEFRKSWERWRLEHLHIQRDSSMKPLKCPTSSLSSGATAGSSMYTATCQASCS
Description: In certain aspects, the assay can also be carried out in medium supplemented with serum albumin that corresponds to the receptor being tested, e.g., human serum albumin for testing cAMP activity at hGIPr or hGLP-1r, rat serum albumin for testing cAMP activity at rGIPr or rGLP-1r, and so on. […] All sample dilutions were made in duplicate.
A frozen cryo-vial of cells expressing the receptor of interest was thawed rapidly in a water-bath, transferred to pre-warmed assay media and spun at 240×g for 5 minutes. Cells were re-suspended in assay buffer at an optimized concentration (e.g., hGLP-1r and hGIPr cells at 0.5×10^5 cells/ml).
To this, 5 μL cell suspension was added and the plates incubated at room temperature for 30 minutes.
cAMP levels were measured using a commercially available cAMP dynamic 2 HTRF kit (Cisbio, Cat #62AM4PEJ), following the two step protocol as per manufacturer's recommendations. In brief; anti-cAMP cryptate (donor fluorophore) and cAMP-d2 (acceptor fluorophore) were made up separately by diluting each 1/20 in conjugate & lysis buffer provided in the kit. […] Data was transformed to % Delta F as described in manufacturer's guidelines and then transformed to percent activation of maximal native agonist response and analysed by 4-parameter logistic fit to determine EC50 values.

cyno GCGr (cGCGr) = assay: cAMP assay, cells expressing cyno GCGr, 4.2% cyno serum albumin; type: cell-based, cynomolgus monkey; details: culture medium containing 4.2% cyno serum albumin
Description: In certain aspects, the assay can also be carried out in medium supplemented with serum albumin that corresponds to the receptor being tested, e.g., human serum albumin for testing cAMP activity at hGIPr or hGLP-1r, rat serum albumin for testing cAMP activity at rGIPr or rGLP-1r, and so on. Low protein binding 384-well plates (Greiner #781280) were used to perform eleven 1 in 5 serial dilutions of test samples that were made in assay medium. All sample dilutions were made in duplicate.
A frozen cryo-vial of cells expressing the receptor of interest was thawed rapidly in a water-bath, transferred to pre-warmed assay media and spun at 240×g for 5 minutes. Cells were re-suspended in assay buffer at an optimized concentration (e.g., hGLP-1r and hGIPr cells at 0.5×10^5 cells/ml). […]
cAMP levels were measured using a commercially available cAMP dynamic 2 HTRF kit (Cisbio, Cat #62AM4PEJ), following the two step protocol as per manufacturer's recommendations. […] Plates were incubated at room temperature for one hour and then read on an Envision (Perkin Elmer) using excitation wavelength of 320 nm and emission wavelengths of 620 nm & 665 nm. Data was transformed to % Delta F as described in manufacturer's guidelines and then transformed to percent activation of maximal native agonist response and analysed by 4-parameter logistic fit to determine EC50 values.

| EC50 (cyno GLP-1r (cGLP-1r); culture medium containing 4.2% cyno serum albumin, read-out: EC50 for cGLP-1r) [nM] | EC50 (cyno GCGr (cGCGr)) [nM] | Compound | PK profile by Fc ELISA (Cmax, bioavailability, half-life), in words [1] | EC50 (cyno GLP-1r (cGLP-1r)) [nM] |
| --- | --- | --- | --- | --- |
| 0.011 | > 1000 | GLP1a-Fc: GLP-1 analogue-Fc (gamma4) fusion control; GLP-1 agonist; Peptide SEQ ID NO:62-Fc, SEQ ID NO:189 (HGEGTFTSDVSSYLEEQAAKEFIAWLVKGR; also: Fc (gamma4) fusion) | equivalent PK profiles | – |
| – | – | CCCCCCCCCCCCCCCC(=O)N[C@@H](CCC(=O)NCCCC[C@H](NC(=O)[C@H](C)NC(=O)[C@H](C)NC(=O)[C@H](CCC(N)=O)NC(=O)CNC(=O)[C@H](CCC(=O)O)NC(=O)[C@H](CC(C)C)NC(=O)[C@H](Cc1ccc(O)cc1)NC(=O)[C@H](CO)NC(=O)[C@H](CO)NC(=O)[C@@H](NC(=O)[C@H](CC(=O)O)NC(=O)[C@H](CO)NC(=O)[C@@H](NC(=O)[C@H](Cc1ccccc1)NC(=O)[C@@H](NC(=O)CNC(=O)[C@H](CCC(=O)O)NC(=O)[C@H](C)NC(=O)[C@@H](N)Cc1cnc[nH]1)[C@@H](C)O)[C@@H](C)O)C(C)C)C(=O)N[C@@H](CCC(=O)O)C(=O)N[C@@H](Cc1ccccc1)C(=O)N[C@H](C(=O)N[C@@H](C)C(=O)N[C@@H](Cc1c[nH]c2ccccc12)C(=O)N[C@@H](CC(C)C)C(=O)N[C@H](C(=O)N[C@@H](CCCNC(=N)N)C(=O)NCC(=O)N[C@@H](CCCNC(=N)N)C(=O)NCC(=O)O)C(C)C)[C@@H](C)CC)C(=O)O [liraglutide] | – | 0.025 |
